# B1: purified recombinant PKM2 1-219 aa protein (domain or fragment)
# chain: not shown
# notes: also called PKM2^1–218,219aa; source: recombinant, purified
# B2: purified STUB1 (natural protein, UniProt Q9UNE7 1-303, looked up)
# chain: MKGKEEKEGGARLGAGGGSPEKSPSAQELKEQGNRLFVGRKYPEAAACYGRAITRNPLVAVYYTNRALCYLKMQQHEQALADCRRALELDGQSVKAHFFLGQCQLEMESYDEAIANLQRAYSLAKEQRLNFGDDIPSALRIAKKKRWNSIEERRIHQESELHSYLSRLIAAERERELEECQRNHEGDEDDSHVRAQQACIEAKHDKYMADMDELFSQVDEKRKKRDIPDYLCGKISFELMREPCITPSGITYDRKDIEEHLQRVGHFDPVTRSPLTQEQLIPNLAMKEVIDAFISENGWVEDY
# notes: STIP1 homology and U-box-containing protein 1 (STUB1); the methods tell only of GST- and His-fused proteins from E. coli BL21 (DE3); source: recombinant, purified
# Legend:
# purified STUB1 = biological target: B2; assay: in vitro competitive binding analysis; purified proteins; increasing amounts of DDX39B added to PKM2 (WT or 1-219 aa) and STUB1; western blotting; conditions: both partners purified
# [1] = biological target: T1, purified recombinant PKM2 (UniProt P14618 1-531); assay: as above; conditions: both partners purified
# T1 construct: pyruvate kinase isoform M2 (PKM2); the methods tell only of GST- and His-fused proteins from E. coli BL21 (DE3); also called PKM2^WT; rPKM2; source: recombinant, purified
# T1 sequence (P14618 whole entry, the tested form may be a part, canonical isoform): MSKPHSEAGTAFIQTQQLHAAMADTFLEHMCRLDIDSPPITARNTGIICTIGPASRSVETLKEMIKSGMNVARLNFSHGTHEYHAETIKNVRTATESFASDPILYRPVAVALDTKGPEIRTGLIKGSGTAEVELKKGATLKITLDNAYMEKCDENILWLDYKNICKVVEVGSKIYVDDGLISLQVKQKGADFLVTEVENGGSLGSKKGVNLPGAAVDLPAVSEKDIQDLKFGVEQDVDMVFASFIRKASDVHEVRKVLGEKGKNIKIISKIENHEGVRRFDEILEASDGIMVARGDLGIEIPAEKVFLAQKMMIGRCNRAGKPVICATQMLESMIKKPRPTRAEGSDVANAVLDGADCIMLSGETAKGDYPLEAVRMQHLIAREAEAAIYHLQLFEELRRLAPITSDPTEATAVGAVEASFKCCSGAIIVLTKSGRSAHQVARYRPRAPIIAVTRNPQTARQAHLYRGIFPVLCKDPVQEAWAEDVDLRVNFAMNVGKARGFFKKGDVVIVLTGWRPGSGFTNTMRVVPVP
binding result (purified STUB1),binding result [1],Binder
binds,–,B1
–,binds,B2

# Source: PMC9381590, “DDX39B drives colorectal cancer progression by promoting the stability and nuclear translocation of PKM2” (Signal Transduction and Targeted Therapy, 2022)
